In publication PMC5561080, “The Gαi-GIV binding interface is a druggable protein-protein interaction” (Scientific Reports, 2017):
Where two headings read alike, the source gives them in different places. No end group written: not given here. 5,6‑carboxyfluorescein = 5,6-carboxyfluorescein

B9: human His-GIV-CT (1660–1870) (domain or fragment, UniProt Q3V6T2-3 1660-1870, looked up)
chain: SETLESRHHKIKTGSPGSEVVTLQQFLEESNKLTSVQIKSSSQENLLDEVMKSLSVSSDFLGKDKPVSCGLARSVSGKTPGDFYDRRTTKPEFLRPGPRKTEDTYFISSAGKPTPGTQGKIKLVKESSLSRQSKDSNPYATLPRASSVISTAEGTTRRTSIHDFLTKDSRLPISVDSPPAAADSNTTAASNVDKVQESRNSKSRSREQQSS
notes: also called His-tagged GIV 1660–1870; source: E. coli BL21(DE3), purified (HisPur Cobalt resin, dialysed against PBS)

Legend:
rat His-Gαi3 [1] = target: T1, rat His-Gαi3 (Rattus norvegicus, UniProt P08753); assay: fluorescence polarization competition; format: binding
T1 construct: gene Gnai3

rat GST-Gαi3 [2] = target: T2, rat GST-Gαi3 (Rattus norvegicus, UniProt P08753); assay: AlphaScreen protein-protein binding inhibition; conditions: displacement of His-GIV-CT 1660-1870 (75 nM each protein); GDP 30 µM, 5 mM MgCl2, pH 7.4, room temperature
T2 construct: gene Gnai3

rat GST-Gαi3 [3] = target: T2, rat GST-Gαi3; assay: AlphaScreen protein-protein binding inhibition; conditions: displacement of His-GIV-CT 1660-1870 (75 nM each protein); GDP 30 µM, 5 mM MgCl2, pH 7.4, room temperature; remark: listed apart in the source
human Gαi3 = target: T3, human Gαi3 (Homo sapiens, UniProt P08754); assay: 1H-15N TROSY NMR titration, chemical shift perturbation; format: binding; conditions: GDP-bound, pH 7.0, 30 °C, 10 mM MgCl2; site SwII/α3/W258 region
T3 construct: gene GNAI3

rat His-Gαi3 [4] = target: T4, rat His-Gαi3 (rat, UniProt P08753 1-354); assay: fluorescence polarisation; fluorescently-labeled GIV peptide 25 nM, rat His-Gαi3 titrated 0.125–10 µM, room temperature; 50 mM Tris-HCl pH 7.4, 100 mM NaCl, 0.4% NP-40, 10 mM MgCl2, 5 mM EDTA, 2 mM DTT, 30 µM GDP; one-site binding model; conditions: both partners purified
T4 construct: GDP-loaded in the buffers; Pull-down and FP methods name the rat protein; also called purified His-Gαi3; source: E. coli BL21(DE3), purified (HisPur Cobalt resin, buffer exchange on HiTrap Desalting)

rat His-Gαi3 [5] = target: T4, rat His-Gαi3; assay: pull-down; 10 µg GST or GST-GIV (~1.25 µM) immobilised on glutathione agarose beads; rat His-Gαi3 0.1–5 µM, 4 h at 4 °C; 50 mM Tris-HCl pH 7.4, 100 mM NaCl, 0.4% NP-40, 10 mM MgCl2, 5 mM EDTA, 2 mM DTT, 30 µM GDP; SDS-PAGE, Coomassie blue; conditions: both partners purified
rat His-Gαi3 [6] = target: T5, rat His-Gαi3 (rat, UniProt P08753 1-354); assay: FP
T5 chain: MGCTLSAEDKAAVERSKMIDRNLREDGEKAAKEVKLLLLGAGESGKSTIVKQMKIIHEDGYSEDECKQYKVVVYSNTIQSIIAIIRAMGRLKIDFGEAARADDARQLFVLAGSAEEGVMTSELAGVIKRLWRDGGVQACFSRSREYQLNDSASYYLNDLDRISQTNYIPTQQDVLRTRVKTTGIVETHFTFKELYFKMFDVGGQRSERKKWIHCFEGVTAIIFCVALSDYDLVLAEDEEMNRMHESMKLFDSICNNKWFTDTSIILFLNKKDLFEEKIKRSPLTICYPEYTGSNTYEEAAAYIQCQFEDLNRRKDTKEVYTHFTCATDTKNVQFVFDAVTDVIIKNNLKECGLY

rat His-Gαi3 [7] = target: T4, rat His-Gαi3; assay: fluorescence polarisation; competition: His-Gαi3 1 µM with fluorescently-labeled GIV 1671–1701 25 nM and increasing unlabeled GIV peptide or His-GIV-CT (0.5–20 µM); buffer with 30 µM GDP; conditions: both partners purified
[8] = target: B9; assay: AlphaScreen or HTRF; competition: 75 nM His-GIV-CT and 75 nM GST-Gαi3 on beads with increasing untagged Gαi3 in solution; buffer with 30 µM GDP; one-site sigmoidal inhibition curve; conditions: both partners purified
rat GST-Gαi3 [9] = target: T6, rat GST-Gαi3 (rat, UniProt P08753 1-354); assay: AlphaScreen or HTRF; His-GIV-CT on nickel-chelate donor beads, GST-Gαi3 on glutathione acceptor beads; 25–100 nM each (75 nM chosen), 10 and 5 µg/ml beads; 50 mM Tris-HCl pH 7.4, 100 mM NaCl, 0.4% NP-40, 5 mM MgCl2, 2 mM DTT, 30 µM GDP; room temperature, 2.5 h; conditions: both partners purified
T6 construct: source: E. coli BL21(DE3), purified (Glutathione Agarose, buffer exchange on HiTrap Desalting)

T2 sequence (Q3V6T2 1660-1870 partner, one chain of several): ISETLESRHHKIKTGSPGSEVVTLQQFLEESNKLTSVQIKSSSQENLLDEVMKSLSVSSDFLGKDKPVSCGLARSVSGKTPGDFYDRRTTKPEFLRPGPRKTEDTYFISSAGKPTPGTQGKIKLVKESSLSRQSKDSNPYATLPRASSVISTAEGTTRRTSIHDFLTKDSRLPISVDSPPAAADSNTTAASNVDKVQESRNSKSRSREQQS
T3 sequence (P08754 whole entry): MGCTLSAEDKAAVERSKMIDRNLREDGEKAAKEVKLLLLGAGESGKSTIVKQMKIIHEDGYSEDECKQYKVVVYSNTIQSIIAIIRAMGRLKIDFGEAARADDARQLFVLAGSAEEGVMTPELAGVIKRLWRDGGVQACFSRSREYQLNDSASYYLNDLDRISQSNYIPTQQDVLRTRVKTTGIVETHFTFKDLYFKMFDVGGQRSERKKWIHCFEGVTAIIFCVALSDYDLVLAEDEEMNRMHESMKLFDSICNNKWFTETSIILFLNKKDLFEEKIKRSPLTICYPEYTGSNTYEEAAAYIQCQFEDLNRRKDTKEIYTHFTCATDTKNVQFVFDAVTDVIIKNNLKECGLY

Cc1ccc(C(=O)Nc2ccc(S(=O)(=O)O)c3cc(S(=O)(=O)O)cc(S(=O)(=O)O)c23)cc1NC(=O)c1cccc(NC(=O)Nc2cccc(C(=O)Nc3cc(C(=O)Nc4ccc(S(=O)(=O)O)c5cc(S(=O)(=O)O)cc(S(=O)(=O)O)c45)ccc3C)c2)c1 [suramin] was tested, and the IC50 (rat His-Gαi3 [1]; read-out: IC50) was ~50000 nM and the “AlphaScreen protein-protein binding inhibition” value (rat GST-Gαi3 [2]) was “suramin is a less potent inhibitor than NF023 in the same AlphaScreen”.

O=C(Nc1cccc(C(=O)Nc2ccc(S(=O)(=O)O)c3cc(S(=O)(=O)O)cc(S(=O)(=O)O)c23)c1)Nc1cccc(C(=O)Nc2ccc(S(=O)(=O)O)c3cc(S(=O)(=O)O)cc(S(=O)(=O)O)c23)c1 [NF023] was tested, and the “% inhibition at 10 μM” value (rat GST-Gαi3 [3]) was “ATA and NF023 efficiently inhibited Gαi3-GIV binding as determined by AlphaScreen”, the “1H-15N TROSY NMR titration, chemical shift perturbation” value (human Gαi3) was “revealed significant Chemical Shift Perturbations (CSP) in only a fraction” and the IC50 (rat His-Gαi3 [1]; read-out: IC50) was ~5000 nM.

For O=C(O)C1=CC(=C(c2ccc(O)c(C(=O)O)c2)c2ccc(O)c(C(=O)O)c2)C=CC1=O [ATA], the “% inhibition at 10 μM” value (rat GST-Gαi3 [3]) was “ATA and NF023 efficiently inhibited Gαi3-GIV binding as determined by AlphaScreen” and the IC50 (rat His-Gαi3 [1]; read-out: IC50) was ~5000 nM.

In the case of O=C(Nc1cc(C(=O)Nc2ccc(S(=O)(=O)O)cc2S(=O)(=O)O)cc(C(=O)Nc2ccc(S(=O)(=O)O)cc2S(=O)(=O)O)c1)Nc1cc(C(=O)Nc2ccc(S(=O)(=O)O)cc2S(=O)(=O)O)cc(C(=O)Nc2ccc(S(=O)(=O)O)cc2S(=O)(=O)O)c1 [NF449], the IC50 (rat His-Gαi3 [1]; displacement of fluorescein-GIV 1671-1701 peptide (25 nM), GDP 30 µM, 10 mM MgCl2, pH 7.4, room temperature) is reported as “NF449 inhibits Gαi3-GIV binding with a potency similar to that of NF023”.

B1: fluorescein-labeled GIV 1671–1696 peptide (peptide)
peptide: {5,6‑carboxyfluorescein}-KTGSPGSEVVTLQQFLEESNKLTSVQ-NH2
notes: Made on MBHA resin, which would leave a C-terminal amide; source: synthetic peptide (Boc-SPPS, RP-HPLC purified)
In the case of B1, the Kd (rat His-Gαi3 [4]) is reported as ~650 nM.

B2: GST-GIV 1671–1696 (domain or fragment, human)
chain: KTGSPGSEVVTLQQFLEESNKLTSVQ
notes: source: purified
B2: binds (rat His-Gαi3 [5]).

B3: fluorescently-labeled GIV 1671–1701 peptide (peptide)
peptide: {5,6‑carboxyfluorescein}-KTGSPGSEVVTLQQFLEESNKLTSVQIKSSS
notes: as for B1
In the case of B3, the Kd (rat His-Gαi3 [6]) is reported as 460 nM and the binding result (rat His-Gαi3 [7]) is reported as “binds”.

B4: fluorescein-labeled GIV 1671–1689 peptide (peptide)
peptide: {5,6‑carboxyfluorescein}-KTGSPGSEVVTLQQFLEES-NH2
notes: as for B1
With B4 the Kd (rat His-Gαi3 [4]) was ~1000 nM.

B5: GST-GIV 1671–1689 (domain or fragment, human)
chain: KTGSPGSEVVTLQQFLEES
notes: source: purified
B5: binds (rat His-Gαi3 [5]).

B6: fluorescein-labeled GIV 1671–1705 peptide (peptide)
peptide: {5,6‑carboxyfluorescein}-KTGSPGSEVVTLQQFLEESNKLTSVQIKSSSQENL
notes: Made on MBHA resin, which would leave a C-terminal amide; also called fluorescently-labeled GIV peptide; source: synthetic peptide (Boc-SPPS, RP-HPLC purified)
Work on B6 yielded a Kd (rat His-Gαi3 [6]) of 560 nM and a Kd (rat His-Gαi3 [4]) of ~500 nM.

B7: untagged rat Gαi3 (natural protein, UniProt P08753 1-354, looked up)
chain: MGCTLSAEDKAAVERSKMIDRNLREDGEKAAKEVKLLLLGAGESGKSTIVKQMKIIHEDGYSEDECKQYKVVVYSNTIQSIIAIIRAMGRLKIDFGEAARADDARQLFVLAGSAEEGVMTSELAGVIKRLWRDGGVQACFSRSREYQLNDSASYYLNDLDRISQTNYIPTQQDVLRTRVKTTGIVETHFTFKELYFKMFDVGGQRSERKKWIHCFEGVTAIIFCVALSDYDLVLAEDEEMNRMHESMKLFDSICNNKWFTDTSIILFLNKKDLFEEKIKRSPLTICYPEYTGSNTYEEAAAYIQCQFEDLNRRKDTKEVYTHFTCATDTKNVQFVFDAVTDVIIKNNLKECGLY
notes: from a pET28b plasmid containing a thrombin cleavage site; also called untagged Gαi3; unlabeled Gαi3; source: E. coli BL21(DE3); rat His-Gαi3 cleaved with agarose-immobilized thrombin, passed over HisPur Cobalt beads, gel filtration (Superdex S200)
B7 was tested, and the IC50 [8] was ~1000 nM.

B8: GST-GIV 1671–1755 (domain or fragment, human, UniProt Q3V6T2-3 1671-1755, looked up)
chain: KTGSPGSEVVTLQQFLEESNKLTSVQIKSSSQENLLDEVMKSLSVSSDFLGKDKPVSCGLARSVSGKTPGDFYDRRTTKPEFLRP
notes: source: E. coli BL21(DE3), purified (Glutathione Agarose)
B8: binds (rat His-Gαi3 [5]).

B9: binds (rat His-Gαi3 [7]); binds (rat GST-Gαi3 [9]).

B10: unlabeled GIV 1671–1701 peptide (peptide)
peptide: KTGSPGSEVVTLQQFLEESNKLTSVQIKSSS
notes: as for B1
B10: binds (rat His-Gαi3 [7]).

B11: GST-fused GIV 1671–1701 (domain or fragment, human)
chain: KTGSPGSEVVTLQQFLEESNKLTSVQIKSSS
notes: source: purified
B11: binds (rat His-Gαi3 [5]).

B12: GST-GIV 1671–1705 (domain or fragment, human)
chain: KTGSPGSEVVTLQQFLEESNKLTSVQIKSSSQENL
notes: limits not spelled out in the text for this one; also called GST-fused GIV truncation construct of 35 amino acids; source: purified
B12: binds (rat His-Gαi3 [5]).
